The target in assay [1] is T1, Cynomolgus monkey CD8a (cynomolgus monkey).
T1 construct: whole, on cells; On transfected HEK293F cells (full length) or natively on cynomolgus PBMC T cells; also called cynomolgus CD8a-FL; cynomolgus monkey CD8α
In words: flow cytometry, cynomolgus PBMC, CD3+CD4- gate. On the procedure:
(§1) Binding of parental and two humanized CD8a-binding polypeptides described above was assessed by flow cytometry on isolated human T cells and on isolated cynomolgus monkey PBMC. The isolated cells were plated in a 96-well plate at 200,000 cells per well for cynomolgus monkey PBMC, and 50,000 cells per well for human T cells in FACS buffer (PBS, 1% BSA, 0.1% NaN₃, pH 7.4). […] FACS buffer alone was used as a secondary antibody-only control. Polypeptide dilutions were added to an equal volume of cells, and assay plates were incubated for 30 minutes at 4° C. After washing twice with 150 μL of FACS buffer per well, the cells were resuspended in FACS buffer with fluorescently-labeled anti-human antibody diluted 1:1000 to detect CD8α binding, and fluorescently labeled anti-CD3 antibody (clone SP34.2) diluted 1:40, and anti-CD4 antibody (clone OKT4) diluted 1:100. Assay plates were incubated at 4° C. for 20 minutes. After one additional wash with 150 μL of FACS buffer, CD8α binding was detected by flow cytometry on CD3+CD4− cells. Binding was measured on these cell populations as mean fluorescence at 647 nm. The data was plotted and analyzed using GraphPad Prism analysis software. Flow cytometric detection was performed on an ACEA Biosciences Novocyte-Quanteon Flow Cytometer. The results are shown in Table 6 and 7 and in FIGS. 4A-B.
A general note: A flow cytometer gives signals particle by particle.

The target of assay [2] is T1, Cynomolgus monkey CD8a. In words: flow cytometry, HEK293F cells transfected with full-length cynomolgus CD8a (GFP+ gate). On the procedure: (§2) Binding of parental and two of the humanized CD8a-binding polypeptides described above was assessed by flow cytometry on transfected HEK293F cells. The HEK293F cells were transiently transfected with a plasmid encoding full length human or cynomolgus monkey CD8α followed by an IRES and GFP. The transfected cells were plated in a 96-well plate at 30,000 cells per well in FACS buffer (PBS, 1% BSA, 0.1% NaN₃, pH 7.4). Test polypeptides were then diluted to 2× the final concentration of 500 nM and 3-, 4-, and 5-fold serial dilutions were made. FACS buffer with no polypeptide was used as a secondary antibody-only control. Test polypeptides were added to an equal volume of cells, and assay plates were incubated for 30 minutes at 4° C. After washing twice with 150 μL of FACS buffer per well, the cells were resuspended in FACS buffer with fluorescently-labeled anti-human Fc antibody diluted 1:2000. Assay plates were incubated at 4° C. for 20 minutes. After one additional wash with 150 μL of FACS buffer, bound polypeptide was detected by flow cytometry. Flow cytometric detection was performed on an Intellicyt iQue Plus. CD8a-expressing transfected cells were gated as GFP positive, and polypeptide binding was measured as median fluorescence at 647 nm. The data was plotted and analyzed using GraphPad Prism analysis software.

Assay [3] deals with T2, Human CD8a (human, UniProt P01732 22-235).
T2 construct: also called CD8α; human CD8a-FL
T2 sequence (P01732 22-235): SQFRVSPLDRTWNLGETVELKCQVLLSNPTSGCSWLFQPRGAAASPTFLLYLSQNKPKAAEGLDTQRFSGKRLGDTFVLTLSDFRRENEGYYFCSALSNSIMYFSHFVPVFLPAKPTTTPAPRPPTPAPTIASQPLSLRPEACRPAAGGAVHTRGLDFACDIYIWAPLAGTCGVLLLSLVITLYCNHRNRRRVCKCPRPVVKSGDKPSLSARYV
In words: flow cytometry, HEK293F cells transfected with full-length human CD8a (GFP+ gate). On the procedure: as §2

Assay [4] concerns the target T2, Human CD8a. In words: flow cytometry, isolated human T cells, CD4- gate, anti-human Fc detection. On the procedure: FACS buffer with no polypeptide was used as a secondary antibody-only control. Polypeptide dilutions were added to an equal volume of cells, and assay plates were incubated for 30 minutes at 4° C. […] Assay plates were incubated at 4° C. for 20 minutes. […] The data was plotted and analyzed using GraphPad Prism analysis software. Flow cytometric detection was performed on an Intellicyt iQue Plus.

For assay [5], the target named is T2, Human CD8a. In words: flow cytometry, isolated human T cells, CD3+CD4- gate. On the procedure:
as §1

For orientation: Kd means the constant that tells how readily two partners part at equilibrium.

B1: hzB7v10-xELL-Fc (Fc fusion)
chain: EVQLVESGGGEVQPGGSLRLSCAASGFTFDDYAMSWVRQAPGKGLEWVSTITWEGEGTDYAESVKGRFTISRDNAKNTVYLQMSSLRAEDTAVYYCAKGSPELQYDSWGQGTLVTVKPGGDKTHTCPPCPAPGGPSVFLFPPKPKDTLMISRTPEVTCVVVDVSHEDPEVKFNWYVDGVEVHNAKTKPREEQYNSTYRVVSVLTVLHQDWLNGKEYKCKVSNKALPAPIEKTISKAKGQPREPQVYTLPPSRDELTKNQVSLTCLVKGFYPSDIAVEWESNGQPENNYKTTPPVLDSDGSFFLYSKLTVDKSRWQQGNVFSCSVMHEALHNHYTQKSLSLSPGK
notes: Homodimeric VHH-human IgG1 Fc xELL fusion
In the case of B1, the Kd was determined as 0.0737 nM with Cynomolgus monkey CD8a [1]; 0.0973 nM in the assay with Cynomolgus monkey CD8a [2]; 0.565 nM with Human CD8a [3]; 0.106 nM with Human CD8a [4]; 0.085 nM in the assay with Human CD8a [5].

Values taken from US20250320295A1 (INHIBRX BIOSCIENCES, published 2025).
